Assay results published in IntAct's records for PubMed 18354501.

B1: General transcription factor IIE subunit 1 (Homo sapiens), P29083 (parent)
chain: MADPDVLTEVPAALKRLAKYVIRGFYGIEHALALDILIRNSCVKEEDMLELLKFDRKQLRSVLNNLKGDKFIKCRMRVETAADGKTTRHNYYFINYRTLVNVVKYKLDHMRRRIETDERDSTNRASFKCPVCSSTFTDLEANQLFDPMTGTFRCTFCHTEVEEDESAMPKKDARTLLARFNEQIEPIYALLRETEDVNLAYEILEPEPTEIPALKQSKDHAATTAGAASLAGGHHREAWATKGPSYEDLYTQNVVINMDDQEDLHRASLEGKSAKERPIWLRESTVQGAYGSEDMKEGGIDMDAFQEREEGHAGPDDNEEVMRALLIHEKKTSSAMAGSVGAAAPVTAANGSDSESETSESDDDSPPRPAAVAVHKREEDEEEDDEFEEVADDPIVMVAGRPFSYSEVSQRPELVAQMTPEEKEAYIAMGQRMFEDLFE

Variants of: B1
Conditions: with tf2h1_human GTF2H1, P32780
Sequence of tf2h1_human GTF2H1, P32780 (P32780 whole entry): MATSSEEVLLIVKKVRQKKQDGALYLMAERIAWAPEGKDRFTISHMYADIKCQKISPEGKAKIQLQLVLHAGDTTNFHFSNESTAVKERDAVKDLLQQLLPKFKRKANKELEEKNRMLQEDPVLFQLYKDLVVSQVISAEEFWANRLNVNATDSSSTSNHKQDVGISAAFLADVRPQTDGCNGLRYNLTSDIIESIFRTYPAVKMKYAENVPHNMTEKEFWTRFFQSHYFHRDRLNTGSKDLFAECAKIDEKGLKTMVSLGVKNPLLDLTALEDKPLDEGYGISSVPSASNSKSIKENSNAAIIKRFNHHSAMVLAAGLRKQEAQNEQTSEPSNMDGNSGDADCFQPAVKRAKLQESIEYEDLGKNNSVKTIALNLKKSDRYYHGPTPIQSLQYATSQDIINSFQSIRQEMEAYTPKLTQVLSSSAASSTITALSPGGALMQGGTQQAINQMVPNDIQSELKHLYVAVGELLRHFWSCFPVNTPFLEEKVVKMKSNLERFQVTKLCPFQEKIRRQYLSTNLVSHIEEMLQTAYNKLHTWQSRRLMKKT

| effect of a mutation on the interaction | Variant |
| --- | --- |
| disrupting interaction | F387A |

Variants of: B1
Conditions: with tf2h1_human GTF2H1, P32780
Remark: another data set of the same source

| effect of a mutation on the interaction | Variant |
| --- | --- |
| disrupting interaction | V390A |
